# B1: RSPO-1: WNT signaling agonist, an R-spondin (protein, UniProt Q2MKA7 21-263, looked up)
# R-spondin-1: SRGIKGKRQRRISAEGSQACAKGCELCSEVNGCLKCSPKLFILLERNDIRQVGVCLPSCPPGYFDARNPDMNKCIKCKIEHCEACFSHNFCTKCKEGLYLHKGRCYPACPEGSSAANGTMECSSPAQCEMSEWSPWGPCSKKQQLCGFRRGSEERTRRVLHAPVGDHAACSDTKETRRCTVRRVPCPEGQKRRKGGQGRRENANRNLARKESKEAGAGSRRRKGQQQQQQQGTVGPLTSAGPA
# B2: RSPO-3: WNT agonist, an R-spondin (protein, UniProt Q9BXY4 22-272, looked up)
# R-spondin-3: QNASRGRRQRRMHPNVSQGCQGGCATCSDYNGCLSCKPRLFFALERIGMKQIGVCLSSCPSGYYGTRYPDINKCTKCKADCDTCFNKNFCTKCKSGFYLHLGKCLDNCPEGLEANNHTMECVSIVHCEVSEWNPWSPCTKKGKTCGFKRGTETRVREIIQHPSAKGNLCPPTNETRKCTVQRKKCQKGERGKKGRERKRKKPNKGESKEAIPDSKSLESSKEIPEQRENKQQQKKRKVQDKQKSVSVSTVH
# B3: NOGGIN: protein inhibitor of BMP signaling (protein, UniProt Q13253 28-232, looked up)
# Noggin: QHYLHIRPAPSDNLPLVDLIEHPDPIFDPKEKDLNETLLRSLLGGHYDPGFMATSPPEDRPGGGGGAAGGAEDLAELDQLLRQRPSGAMPSEIKGLEFSEGLAQGKKQRLSKKLRRKLQMWLWSQTFCPVLYAWNDLGSRFWPRYVKVGSCFSKRSCSVPEGMVCKPSKSVHLTVLRWRCQRRGGQRCGWIPIQYPIISECKCSC
# B4: BMP4: BMP signaling activator (protein, UniProt P12644 293-408, looked up)
# Bone morphogenetic protein 4: SPKHHSQRARKKNKNCRRHSLYVDFSDVGWNDWIVAPPGYQAFYCHGDCPFPLADHLNSTNHAIVQTLVNSVNSSIPKACCVPTELSAISMLYLDEYDKVVLKNYQEMVVEGCGCR
# B5: amphiregulin (protein, UniProt P15514 101-187, looked up)
# Amphiregulin: SVRVEQVVKPPQNKTESENTSDKPKRKKKGGKNGKNRRNRKKKNPCNAEFQNFCIHGECKYIEHLEAVTCKCQQEYFGERCGEKSMK
# notes: ligand of ERBB1
# B6: TGFβ3: ligand of a TGFβ receptor (protein, UniProt P10600 301-412, looked up)
# Transforming growth factor …: ALDTNYCFRNLEENCCVRPLYIDFRQDLGWKWVHEPKGYYANFCSGPCPYLRSADTTHSTVLGLYNTLNPEASASPCCVPQDLEPLTILYYVGRTPKVEQLSNMVVKSCKCS
# Legend:
# [1] = test system: mouse mammary epithelial cells; assay: Mouse mammary organoid formation, organoid organization by brightfield/confocal imaging; assay type: cell-based; settings: for type of organoids formed from bulk (non-sorted) mammary epithelial cells: RSPO comprising media vs media free of RSPO (luminal-biased/cystic)
# Method: (§1) A single cell suspension of mouse mammary epithelial cells was isolated from mammary glands, as follows. A resected mammary gland was minced and placed in a tube containing standard culture medium, including 50 μg/ml gentamycin, collagenase, and hyaluronidase. The mammary gland was incubated for 2 hours at 37° C. in the tissue incubator. Following the incubation, the cell dissociation mixture was washed in advanced DMEM and centrifuged at 300 g for 5 minutes. Depending on the appearance of the pellet, in some cases it is desirable to resuspend the pellet in ammonium chloride to lyse contaminating red blood cells. Following, the pellet is resuspended in 0.25% Trypsin-EDTA, as above, for 5 minutes at 37° C. and then centrifuged at (300 g for 5 minutes). The supernatant was discarded and the pellet was resuspended in a 100 μg/ml DNase solution for 1 minute at room temperature. The resulting cells were passed through a 37 μm strainer to obtain the single cell suspension.
# Each well received between 0.5-1 mL of any one of the various culture media described herein.
# The plated single cell suspension of mammary epithelial cells formed into organoids that were passaged approximately every 7-days, with 2-3 full medium changes during such 7-day period. To passage the organoids, the Matrigel domes were broken apart by pipetting in pre-warmed 0.25% Trypsin-EDTA, incubating at 37° C. for ˜ 5-15 minutes and pipetting again. The trypsinization reaction was inactivated by washing in an equal volume of Hanks Balanced Salt Solution supplemented with 2% FBS. Depending on the density and size of organoids a 1:2-1:5 split was performed, with the cells seeded as domes, as described above. Alternatively, cells would be strained through a 37 μm strainer to obtain the single cell suspension and seeded in Matrigel domes as described above.
# Single cell suspensions of mouse mammary epithelial cells were obtained in accordance with Example 1. The single cell suspension was sorted using a BD FACSAria™ Fusion flow cytometer into three populations of cells corresponding to the ER^+, milk, and basal cell lineages, based on the differential expression of EpCAM, CD49f, and CD49b. Non-epithelial cells were further eliminated during the sorting strategy based on the expression of CD45, Ter119 and CD31. The sorted cells were seeded and cultured essentially as described in Example 2 in an organoid medium free of an exogenously-added inhibitor of BMP signaling and either comprising exogenously added RSPO-1 (˜100 ng/mL) or lacking exogenously added RSPO-1 (e.g. MammoCult™ Mouse Organoid Growth Medium, […] Technologies) (FIG. 2).
# Organoid media were formulated to lack either exogenously added RSPO-1 or RSPO-3, and they were tested on single cell suspensions of bulk mammary epithelial cells, obtained in accordance with Example 1 and seeded and cultured as described in Example 2. […] Flow cytometry analysis of the cellular composition of organoids formed in either RSPO-comprising media or media lacking RSPO confirmed a reduction in the number of basal cells among organoids formed in the absence of WNT agonism (FIG. 3B).
# In a follow-up experiment, organoids were formed from single cell suspensions obtained in accordance with Example 1, and seeded and cultured as described in Example 2. […] At the end of the second passage the formed organoids were processed and stained for K8, K14, and DAPI, as described in Example 3.
# The foregoing experiments were performed in a medium that included an inhibitor of BMP signaling, thus the effect of BMP signaling inhibition on the formation of mouse mammary organoids was explored.
# [2] = test system: human mammary epithelial cells; assay: Human mammary organoid formation, brightfield microscopy; assay type: cell-based
# Method: Fragments of human mammary epithelial cells were isolated from tissue samples obtained from academic collaborators, as follows. Resected tissue samples were minced in a petri dish using a scalpel to cut in a cross-hatched pattern. The minced tissue samples were placed in a dissociation flask in standard culture medium supplemented with BSA, insulin, collagenase and hyaluronidase. The flask was gently shaken overnight on an orbital shaker placed in a 37° C. tissue incubator. The following morning the floating layer of fat was removed by pipette, and the remaining liquid was transferred to a tube and briefly centrifuged at low rpm (˜80 g for 30 seconds). The pellet (A pellet) was set aside and the supernatant was further centrifuged for an incrementally longer period of time and at an incrementally higher rpm (˜200 g for 4 minutes). The pellet (B pellet) was set aside and the supernatant was further centrifuged for a still incrementally longer period of time and at an incrementally higher rpm (˜450 g for 5 minutes).
# Cryopreserved pellet A and pellet B were dissociated into a single cell suspension by treatment with 0.25% Trypsin-EDTA for 5 minutes at 37° C. (with intermittent trituration) and then centrifuged at (300 g for 5 minutes). The supernatant was discarded and the pellet was resuspended in a 100 μg/ml DNase solution for 1 minute at room temperature. […]
# [3] = test system: mouse mammary epithelial cells; assay: Mouse mammary organoid cell lineage balance by flow cytometry (EpCAM, CD49f); assay type: cell-based; settings: non-sorted mouse cells; ~100 ng/mL NOGGIN and ~100 ng/mL RSPO-1 together vs free of both; 8 independent experiments; 14 days (P0)
# Method: Panels A) and B) show representative images of organoids after cells were cultured for 14 days (P0) in an R-spondin-containing (panel A) or an R-spondin-free (panel B) medium. Cells of the organoids shown in panels A) and B) were respectively analyzed by flow cytometry for expression of EpCAM and CD49f (panels C) and D)). A summary of flow cytometry data is shown in panel E. Results were confirmed in n=8 mice. Scale bars are 500 μm.
# as §1, with “The resulting cells were passed through a 37 μm strainer to obtain the single cell suspension.” left out
# [4] = test system: human mammary epithelial cells; assay: Human mammary organoid cell lineage balance by flow cytometry; settings: for cell lineage balance, BMP signaling modulators: ~50 ng/mL BMP2 or BMP4, ~25-200 ng/mL NOGGIN or ~10-100 nM LDN193189
# Method: (§2) Cryopreserved pellet A and pellet B were dissociated into a single cell suspension by treatment with 0.25% Trypsin-EDTA for 5 minutes at 37° C. (with intermittent trituration) and then centrifuged at (300 g for 5 minutes). The supernatant was discarded and the pellet was resuspended in a 100 μg/ml DNase solution for 1 minute at room temperature. The resulting cells were passed through a 37 μm strainer to obtain the single cell suspension.
# Organoids were formed in media comprising either BMP signaling activator, ˜50 ng/mL BMP2 or ˜50 ng/mL BMP4, and in media comprising either BMP signaling inhibitor, ˜25-200 ng/mL NOGGIN or ˜10-100 nM LDN193189. Just prior to the first passage, the formed organoids were dissociated and the cell lineage balance was analyzed by flow cytometry.
# Organoids were formed in media comprising either no ligand of an ERBB receptor family member, or comprising ˜10-50 ng/mL amphiregulin (AREG), ˜10-50 ng/mL epidermal growth factor (EGF), or ˜50-100 ng/mL heregulin/neuregulin 1 (NRG1). Just prior to the first passage, the formed organoids were dissociated and the cell lineage balance was analyzed by flow cytometry.
# Just prior to the first passage, the formed organoids were dissociated and the cell lineage balance was analyzed by flow cytometry.
# [5] = test system: human mammary epithelial cells; assay: Total cell count among formed human mammary organoids; assay type: cell-based
# Method: as §2
# Each well received between 0.5-1 mL of any one of the various culture media described herein. […]
# The effects of modulating signaling through BMP were analyzed across multiple experiments in terms of total cell count among formed organoids (FIG. 9A) and the lineage balance of the cells among formed organoids (FIG. 9B).
# The effects of modulating signaling through an ERBB receptor family member were analyzed across multiple experiments in terms of total cell count among formed organoids (FIG. 13A) and the lineage balance of the cells among formed organoids (FIG. 13B).
molecule,measurement,setting,value
B1,organization of organoids formed in the absence of RSPO-1 over three successive passages,"[1]; non-sorted mouse cells, P0-P2, absence vs presence of RSPO-1, medium included BMP signaling inhibitor",cystic organization devoid of branching
same,type of organoids formed from bulk (non-sorted) mammary epithelial cells,[1]; non-sorted mouse cells,yielded a significant number of mixed organoids
same,organoid formation from sorted ER+ lineage cells,"[1]; sorted mouse ER+ luminal cells, medium with ~100 ng/mL RSPO-1 vs lacking RSPO-1, no BMP signaling inhibitor",generally the same efficiency in either of the tested medium formulations
same,organoid organization from sorted basal lineage cells,"[1]; sorted mouse basal lineage cells, RSPO-1 (~100 ng/mL) containing medium vs RSPO-1 deficient",a predominately mixed organization
same,organoid organization from sorted milk lineage cells,"[1]; sorted mouse milk lineage cells, RSPO-1 (~100 ng/mL) containing medium vs RSPO-1 deficient (cystic)","a more mixed organization of basal, luminal and other cells"
same,luminal-biased organoids with vs without exogenously-added RSPO-1,"[2]; luminal-promoting organoid medium, ~20-200 ng/mL RSPO-1",did not reveal a significant increase or reduction of luminal-biased organoids
same,lineage balance in medium free of NOGGIN and RSPO-1 vs medium comprising both,[3],a significant reduction of basal cells with a concomitant increase in luminal cells
B2,type of organoids formed from bulk (non-sorted) mammary epithelial cells,[1]; non-sorted mouse cells,yielded a significant number of mixed organoids
B3,"formation of luminal organoids, single vs dual BMP signaling inhibitor","[2]; media comprising NOGGIN or LDN193189 alone vs both, successive passages",appeared sufficient to bias formation of luminal organoids
same,lineage balance in medium free of NOGGIN and RSPO-1 vs medium comprising both,[3],a significant reduction of basal cells with a concomitant increase in luminal cells
same,"cell lineage balance, BMP signaling modulators",[4]; just prior to first passage,decreased the number of basal cells while increasing the number of luminal cells
B4,"total cell count among formed organoids, BMP signaling modulators",[5]; vs condition where BMP signaling not modulated or inhibited,a marked net loss of total cells
same,"cell lineage balance, BMP signaling modulators",[4]; just prior to first passage,significant increase in basal cells and reduction in luminal cells
B5,"total cell count among formed organoids, ERBB modulators",[5]; vs control with no modulation of ERBB signaling,highest mitogenic activity
same,"cell lineage balance, ERBB receptor family ligands","[4]; just prior to first passage, ~10-50 ng/mL AREG, ~10-50 ng/mL EGF, ~50-100 ng/mL NRG1",a minor or no effect on cell lineage balance
same,"cell lineage balance across multiple experiments, ERBB ligands","[4]; normalized to control lacking ERBB modulators, mean of 2 experiments",minimal impact on luminal cell percentages but profound impact on increasing basal cell percentages
B6,"cell lineage balance, TGFβ receptor ligands","[4]; ~50 ng/mL, just prior to first passage",results consistent with TGF β1
